This note sets out measurements from US20120276075.

The target of data set [1] is NPY 1-36 (neuropeptide Y).

BSA, P02769, sequence (P02769 25-607): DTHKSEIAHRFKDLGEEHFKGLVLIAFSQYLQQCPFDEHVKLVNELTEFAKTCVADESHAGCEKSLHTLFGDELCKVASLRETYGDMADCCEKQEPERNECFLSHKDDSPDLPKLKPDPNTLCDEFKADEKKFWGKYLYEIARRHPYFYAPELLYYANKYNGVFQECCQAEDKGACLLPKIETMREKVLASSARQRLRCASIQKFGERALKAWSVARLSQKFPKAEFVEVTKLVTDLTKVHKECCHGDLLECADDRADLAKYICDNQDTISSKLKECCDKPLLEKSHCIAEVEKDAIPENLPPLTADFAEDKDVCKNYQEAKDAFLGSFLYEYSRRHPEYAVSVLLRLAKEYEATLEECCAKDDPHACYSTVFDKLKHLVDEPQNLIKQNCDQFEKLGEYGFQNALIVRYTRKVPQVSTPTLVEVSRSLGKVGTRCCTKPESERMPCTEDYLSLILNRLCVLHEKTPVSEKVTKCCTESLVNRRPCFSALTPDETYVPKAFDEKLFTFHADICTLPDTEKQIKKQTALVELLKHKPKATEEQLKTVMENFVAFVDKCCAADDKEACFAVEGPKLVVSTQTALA

B1: recombinant Aspergillus fumigatus sedolisin SedB (tripeptidyl-peptidase), produced in Pichia pastoris (protein)
chain: TSTCDQVITPQCLKDLYNIGDYKADPNGGSKVAFASFLEEYARYDDLAKFEEKLAPYAIGQNFSVIQYNGGLNDQNSASDSGEANLDLQYIVGVSSPIPVTEFSTGGRGLLIPDLSQPDPNDNSNEPYLEFLQNVLKMDQDKLPQVISTSYGEDEQTIPEKYARSVCNLYAQLGSRGVSVIFSSGDSGVGAACLTNDGTNRTHFPPQFPAACPWVTSVGGTTKTQPEEAVYFSSGGFSDLWERPSWQDSAVKRYLKKLGPRYKGLYNPKGRAFPDVAAQAENYAVFDKGVLHQFDGTSCSAPAFSAIVALLNDARLRAHKPVMGFLNPWLYSKASKGFNDIVKGGSKGCDGRNRFGGTPNGSPVVPYASWNATDGWDPATGLGTPDFGKLLSLAMRR
Regarding B1, the “digestion of the peptide at acidic pH, mass spectrometry” value in the data set with NPY 3-36 was “NPY3-36 was not digested by recombinant SedB”; in data set [1], “this enzyme removed tripeptides (YPS, KPD and NPG) from the N-terminus of NPY1-36 until position 10”. Moreover, in the data set with NPY 3-36, the “digestion of the peptide by AfuS28 and SedB added together, acidic pH, mass spectrometry” value was “AfuS28 and SedB added together degraded NPY3-36 in Y, di- and tri-peptides”. For the same protein, the “degradation of the peptide by AfuS28 + SedB together, 2 hours at 37 C, pH 4 and pH 8, mass spectrometry” value in the data set with 33-mer of gliadin was “The enzyme composition AfuS28+SedB provides complete degradation of gliadin into several di-, tri-, tetra- and pentapeptides”.

B2: recombinant Aspergillus fumigatus prolyl protease AfuS28, His6-tagged, produced in Pichia pastoris (protein)
chain: LMPRAPLIPAMKAKVALPSGNATFEQYIDHNNPGLGTFPQRYWYNPEFWAGPGSPVLLFTPGESDAADYDGFLTNKTIVGRFAEEIGGAVILLEHRYWGASSPYPELTTETLQYLTLEQSIADLVHFAKTVNLPFDEIHSSNADNAPWVMTGGSYSGALAAWTASIAPGTFWAYHASSAPVQAIYDFWQYFVPVVEGMPKNCSKDLNRVVEYIDHVYESGDIERQQEIKEMFGLGALKHFDDFAAAITNGPWLWQDMNFVSGYSRFYKFCDAVENVTPGAKSVPGPEGVGLEKALQGYASWFNSTYLPGSCAEYKYWTDKDAVDCYDSYETNSPIYTDKAVNNTSNKQWTWFLCNEPLFYWQDGAPKDESTIVSRIVSAEYWQRQCHAYFPEVNGYTFGSANGKTAEDVNKWTKGWDLTNTTRLIWANGQFDPWRDASVSSKTRPGGPLQSTEQAPVHVIPGGFHCSDQWLVYGEANAGVQKVIDEEVAQIKAWVAEYPKYRKPHHHHHH
As for B2, the “endoproteolytic activity (release of label from resorufin-labeled casein)” value in the data set with resorufin-labeled casein is “Recombinant AfuS28 showed no detectable proteolytic activity using casein resorufin-labeled as a substrate”. Also, in the data set with NPY 3-36, the “degradation of the peptide, products detected by mass spectrometry” value (“degradation … by mass spectrometry” below) was “AfuS28 was also found to degrade NPY1-36 and NPY3-36, cleaving after proline residues”; the “digestion of the peptide by AfuS28 and SedB added together, acidic pH, mass spectrometry” value was “AfuS28 and SedB added together degraded NPY3-36 in Y, di- and tri-peptides”; the “full length NPY3-36 remaining after 15 min with 1.8 mU of enzyme at 37 C (degradation kinetics, mass spectrometry)” value is on record as “Less than 10% of full length NPY3-36 was still present after 15 min incubation”. Further, the “proteolysis of a full length protein substrate” value in the data set with BSA, P02769 was “AfuS28 does not attack full length protein substrates such as resorufin-labeled casein and BSA”. The “degradation of the peptide by AfuS28 + SedB together, 2 hours at 37 C, pH 4 and pH 8, mass spectrometry” value in the data set with 33-mer of gliadin is “The enzyme composition AfuS28+SedB provides complete degradation of gliadin into several di-, tri-, tetra- and pentapeptides”. In the data set with bradykinin (…), the “degradation … by mass spectrometry” value was “Digestion of bradykinin (RPPGFSPFR, SEQ ID NO:28) resulted in RPP, FR, GFSPFR (SEQ ID NO:35) and PGFSPFR (SEQ ID NO:36) fragments”. The “degradation … by mass spectrometry” value in data set [1] was “AfuS28 was also found to degrade NPY1-36 and NPY3-36, cleaving after proline residues”.
